The text below walks through data of the Human Domainome abundance scans (Beltran et al. 2025).

B1: Steroid hormone receptor ERR2, residues 100 to 176; numbered along this chain, O95718 (parent)
chain: KRLCLVCGDIASGYHYGVASCEACKAFFKRTIQGNIEYSCPATNECEITKRRRKSCQACRFMKCLKVGMLKEGVRLD

± gives the uncertainty stated by the source.

The variants in this data set derive from B1. Description: abundance fitness (aPCA) (normalised: wild type 0, dead -1); higher = more abundant; growth selection in yeast, the domain comes from the species named. As to conditions: Homo sapiens.
For KRLCLVCGDIASGYHYGVASCEACKAFFKRTIQGNIEYSCPAVNECEITKRRRKSCQACRFMKCLKVGMLKEGVRLD [T43V], the abundance fitness is -0.012 ± 0.044. KRLCLVCGDIASGYHYGVASCEACKAFFKRTIQGNIEYSCPAPNECEITKRRRKSCQACRFMKCLKVGMLKEGVRLD [T43P]: the abundance fitness is -0.393 ± 0.086. KRLCLVCGDIASGYHYGVASCEACKAFFKRTIQGNIEYSCPAYNECEITKRRRKSCQACRFMKCLKVGMLKEGVRLD [T43Y]: the abundance fitness was -0.252 ± 0.18. For the variant KRLCLVCGDIASGYHYGVASCEACKAFFKRTIQGNIEYSCPADNECEITKRRRKSCQACRFMKCLKVGMLKEGVRLD [T43D], the abundance fitness is -0.152 ± 0.086. The value for KRLCLVCGDIASGYHYGVASCEACKAFFKRTIQGNIEYSCPAENECEITKRRRKSCQACRFMKCLKVGMLKEGVRLD [T43E] was 0.042 ± 0.053; that for KRLCLVCGDIASGYHYGVASCEACKAFFKRTIQGNIEYSCPAANECEITKRRRKSCQACRFMKCLKVGMLKEGVRLD [T43A] was 0.081 ± 0.046. Consider KRLCLVCGDIASGYHYGVASCEACKAFFKRTIQGNIEYSCPARNECEITKRRRKSCQACRFMKCLKVGMLKEGVRLD [T43R], for which the abundance fitness came out at 0.043 ± 0.035. With KRLCLVCGDIASGYHYGVASCEACKAFFKRTIQGNIEYSCPACNECEITKRRRKSCQACRFMKCLKVGMLKEGVRLD [T43C], the abundance fitness is -0.651 ± 0.11. Consider KRLCLVCGDIASGYHYGVASCEACKAFFKRTIQGNIEYSCPAKNECEITKRRRKSCQACRFMKCLKVGMLKEGVRLD [T43K], for which the abundance fitness came to 0.212 ± 0.051. The value for KRLCLVCGDIASGYHYGVASCEACKAFFKRTIQGNIEYSCPANNECEITKRRRKSCQACRFMKCLKVGMLKEGVRLD [T43N] was -0.085 ± 0.083. Regarding KRLCLVCGDIASGYHYGVASCEACKAFFKRTIQGNIEYSCPITNECEITKRRRKSCQACRFMKCLKVGMLKEGVRLD [A42I], the abundance fitness worked out at 0.027 ± 0.094.

Turning to KRLCLVCGDIASGYHYGVASCEACKAFFKRTIQGNIEYSCPKTNECEITKRRRKSCQACRFMKCLKVGMLKEGVRLD [A42K], the abundance fitness is -0.087 ± 0.062. As for KRLCLVCGDIASGYHYGVASCEACKAFFKRTIQGNIEYSCPWTNECEITKRRRKSCQACRFMKCLKVGMLKEGVRLD [A42W], the abundance fitness was -0.043 ± 0.043.

Consider KRLCLVCGDIASGYHYGVASCEACKAFFKRTIQGNIEYSCPSTNECEITKRRRKSCQACRFMKCLKVGMLKEGVRLD [A42S], for which the abundance fitness was -0.098 ± 0.05. The figure for KRLCLVCGDIASGYHYGVASCEACKAFFKRTIQGNIEYSCPHTNECEITKRRRKSCQACRFMKCLKVGMLKEGVRLD [A42H] is -0.445 ± 0.13; for KRLCLVCGDIASGYHYGVASCEACKAFFKRTIQGNIEYSCPRTNECEITKRRRKSCQACRFMKCLKVGMLKEGVRLD [A42R] it is -0.024 ± 0.039. Turning to KRLCLVCGDIASGYHYGVASCEACKAFFKRTIQGNIEYSCPQTNECEITKRRRKSCQACRFMKCLKVGMLKEGVRLD [A42Q], the abundance fitness is -0.191 ± 0.068.

KRLCLVCGDIASGYHYGVASCEACKAFFKRTIQGNIEYSCPLTNECEITKRRRKSCQACRFMKCLKVGMLKEGVRLD [A42L]: the abundance fitness is -0.064 ± 0.042. For the variant KRLCLVCGDIASGYHYGVASCEACKAFFKRTIQGNIEYSCPVTNECEITKRRRKSCQACRFMKCLKVGMLKEGVRLD [A42V], the abundance fitness was -0.153 ± 0.049. With KRLCLVCGDIASGYHYGVASCEACKAFFKRTIQGNIEYSCPMTNECEITKRRRKSCQACRFMKCLKVGMLKEGVRLD [A42M], the abundance fitness is -0.033 ± 0.071. The figure for KRLCLVCGDIASGYHYGVASCEACKAFFKRTIQGNIEYSCPATNNCEITKRRRKSCQACRFMKCLKVGMLKEGVRLD [E45N] is -0.235 ± 0.12. The figure for KRLCLVCGDIASGYHYGVASCEACKAFFKRTIQGNIEYSCPATNQCEITKRRRKSCQACRFMKCLKVGMLKEGVRLD [E45Q] is 0.055 ± 0.059.

Take KRLCLVCGDIASGYHYGVASCEACKAFFKRTIQGNIEYSCPATNLCEITKRRRKSCQACRFMKCLKVGMLKEGVRLD [E45L]: the abundance fitness is -0.303 ± 0.06. Turning to KRLCLVCGDIASGYHYGVASCEACKAFFKRTIQGNIEYSCPATNDCEITKRRRKSCQACRFMKCLKVGMLKEGVRLD [E45D], the abundance fitness is -0.086 ± 0.086. As to KRLCLVCGDIASGYHYGVASCEACKAFFKRTIQGNIEYSCPATNCCEITKRRRKSCQACRFMKCLKVGMLKEGVRLD [E45C], the abundance fitness was -0.396 ± 0.11. KRLCLVCGDIASGYHYGVASCEACKAFFKRTIQGNIEYSCPATNTCEITKRRRKSCQACRFMKCLKVGMLKEGVRLD [E45T]: the abundance fitness was -0.209 ± 0.085.

With KRLCLVCGDIASGYHYGVASCEACKAFFKRTIQGNIEYSCPATNICEITKRRRKSCQACRFMKCLKVGMLKEGVRLD [E45I], the abundance fitness is -0.288 ± 0.18. Turning to KRLCLVCGDIASGYHYGVASCEACKAFFKRTIQGNIEYSCPATNACEITKRRRKSCQACRFMKCLKVGMLKEGVRLD [E45A], the abundance fitness was -0.172 ± 0.051. In the case of KRLCLVCGDIASGYHYGVASCEACKAFFKRTIQGNIEYSCPATNMCEITKRRRKSCQACRFMKCLKVGMLKEGVRLD [E45M], the abundance fitness is -0.176 ± 0.068. Regarding KRLCLVCGDIASGYHYGVASCEACKAFFKRTIQGNIEYSCPATNVCEITKRRRKSCQACRFMKCLKVGMLKEGVRLD [E45V], the abundance fitness was -0.144 ± 0.047. The figure for KRLCLVCGDIASGYHYGVASCEACKAFFKRTIQGNIEYSCPATNSCEITKRRRKSCQACRFMKCLKVGMLKEGVRLD [E45S] is -0.149 ± 0.058; for KRLCLVCGDIASGYHYGVASCEACKAFFKRTIQGNIEYSCPATNPCEITKRRRKSCQACRFMKCLKVGMLKEGVRLD [E45P] it is -0.637 ± 0.15; for KRLCLVCGDIASGYHYGVASCEACKAFFKRTIQGNIEYSCPATNFCEITKRRRKSCQACRFMKCLKVGMLKEGVRLD [E45F] it is -0.329 ± 0.17. As to KRLCLVCGDIASGYHYGVASCEACKAFFKRTIQGNIEYSCPATNWCEITKRRRKSCQACRFMKCLKVGMLKEGVRLD [E45W], the abundance fitness is -0.981 ± 0.2. The value for KRLCLVCGDIASGYHYGVASCEACKAFFKRTIQGNIEYSCPATNGCEITKRRRKSCQACRFMKCLKVGMLKEGVRLD [E45G] was 0.003 ± 0.042; that for KRLCLVCGDIASGYHYGVASCEACKAFFKRTIQGNIEYSCPATNHCEITKRRRKSCQACRFMKCLKVGMLKEGVRLD [E45H] was -0.143 ± 0.1.
